Reference: patent publication US20100129806A1

Key:
[1] = target: myc-IP6K2 E138-9A mutant (glutamates 138 and 139 mutated) (human) (UniProt Q9UHH9); assay: cell-based or functional assay
[2] = target: myc-IP6K2 R133A mutant (human) (UniProt Q9UHH9); assay: cell-based or functional assay
Sequence of myc-IP6K2 R133A mutant (human) (Q9UHH9 whole entry R133A): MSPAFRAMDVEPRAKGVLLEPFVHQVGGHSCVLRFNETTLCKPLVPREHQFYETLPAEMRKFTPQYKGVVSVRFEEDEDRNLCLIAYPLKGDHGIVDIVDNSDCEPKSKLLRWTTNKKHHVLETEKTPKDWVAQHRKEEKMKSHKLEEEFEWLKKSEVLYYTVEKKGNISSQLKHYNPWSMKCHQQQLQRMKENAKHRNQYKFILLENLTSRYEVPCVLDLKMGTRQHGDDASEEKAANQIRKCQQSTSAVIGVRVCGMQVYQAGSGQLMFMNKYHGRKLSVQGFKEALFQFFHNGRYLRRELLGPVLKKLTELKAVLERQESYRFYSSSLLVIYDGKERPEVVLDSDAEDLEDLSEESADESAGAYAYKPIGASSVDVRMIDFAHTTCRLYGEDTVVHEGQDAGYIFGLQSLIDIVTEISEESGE

Sequence of myc-IP6K2 E138-9A mutant (glutamates 138 and 139 mutated) (human) (Q9UHH9 other isoform, or with tags, fused parts or gaps mutant): as the sequence (Q9UHH9 whole entry R133A) above, with A133R, E138A, E139A counted along it

Substance: endogenous HSP90 of human cells (HEK 293, HeLa), also used purified from HeLa cells (from UniProt P07900 2-732)
- IP6K2 enzyme activity in vivo (fold of IP6K2wt) [1]: 2
- cell death of transfected HeLa cells (fold of wild type IP6K2) [1]: 5
- IP6K2 enzyme activity in vivo (fold of IP6K2wt) [2]: 2
- cell death of transfected HeLa cells (fold of wild type IP6K2) [2]: 5
